Here are results for one molecule from patent publication US20120195879A1 (published 2012).

This assay concerns the target T1, keyhole limpet hemocyanin (multimeric high molecular weight KLH) (Megathura crenulata (keyhole limpet), UniProt Q10583 17-3414; Q10584 20-3421).
T1 construct: also called mcKLH; Multimeric KLH
Kind of assay: SPR (BIAcore 2000), antibody captured on anti-human IgG Fc surface, multimeric KLH injected; apparent constants.

Method: Multimeric high molecular weight keyhole limpet hemocyanin (KLH) was from Pierce (Rockford, Ill.). Anti-human IgG, Fcγ-specific antibody was from Jackson ImmunoResearch Laboratories, Inc. (West Grove, Pa.). BIACore 2000, research grade sensor chip CM5, surfactant P-20 (polyoxyethylenesorbitan), HBS-EP (10 mM HEPES, 0.15M NaCl, 3.4 mM EDTA, 0.005% P-20, pH 7.4), amine coupling reagents, 10 mM acetate, pH 4.5, and 10 mM glycine, pH 1.5 were from BIACore, Inc. (Piscataway, N.J.). Phosphate-buffered saline (PBS, 1×, no calcium chloride, no magnesium chloride) was from Invitrogen (Carlsbad, Calif.). Bovine serum albumin (BSA, fraction V, IgG free) was from Sigma (St. Louis, Mo.).
Anti-KLH antibody wase captured on individual flow cells, followed by injection of either sample buffer or KLH, ranging in concentration from 0.19-100 nM. To prepare dilutions of the multimeric high molecular weight KLH, an average molecular weight of 5,000,000 daltons was used. Following sample buffer or antigen injection, each surface was regenerated by two injections of 10 mM glycine, pH 1.5 to dissociate captured antibody from the immobilized anti-human Fc surfaces. BIAevaluation software was used to determine apparent kinetic parameters for binding of KLH to captured anti-KLH antibodies.

B1: anti-KLH antibody (human IgG1, clone 120.6.1) (antibody, V domains shown)
VH: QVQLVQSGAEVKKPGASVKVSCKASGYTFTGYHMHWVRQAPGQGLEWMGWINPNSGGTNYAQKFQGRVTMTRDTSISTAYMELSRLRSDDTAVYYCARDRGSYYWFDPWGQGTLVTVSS
VL: DIQMTQSPSSLSASVGDRVTITCRASQGIRNDLGWYQQKPGKAPKRLIYAASSLQSGVPSRFSGSGSGTEFTLTISSLQPEDFATYYCLQHNSYPLTFGGGTKVEIK
notes: also called IgG1 (120.6.1); anti-KLH 120.6.1
Regarding B1, the Kd came to 0.2 nM, the koff is 2.5e-05 s⁻¹ and the on-rate (kon) stood at 120000 M⁻¹ s⁻¹.
